Each binder was assayed against T1, mouse ROR2-TwinStrep (mouse, UniProt Q9Z138 34-403) (assay: ELISA, panel 'mouse ROR2' (mouse ROR2-TwinStrep 2 µg/mL coated), 4-fold dilutions of purified antibody from 2000 ng/mL, HRP anti-human IgG, OD 490 nm).
T1 construct: also called mROR2; murine ROR2; not shown: TwinStrep tag
Method: (§1) Binding of antibodies to hROR2, mouse ROR2 (mROR2) and cynomolgus ROR2 (cROR2) was evaluated in an ELISA-based assay. For this, ELISA plates were coated with 50 μL of 2 μg/ml, in sodium bicarbonate coating buffer (0.1M Na₂CO₃, 0.1M NaHCO₃, pH 9.6), of: (a) an anti-human Fc (Jackson Immunoresearch, 109-006-098), (b) hROR2-TwinStrep, (c) cynomolgus ROR2-TwinStrep or (d) mouse ROR2-TwinStrep. Following 1-2-days incubation at 4° C., plates were washed with PBS supplemented with 0.05% (v/v) of Tween 20 and blocked with 150 μL of PBS supplemented with 0.05% (v/v) of Tween 20 and 3% of bovine serum albumin (BSA). Thereafter, 3-fold or 4-fold dilutions of purified antibodies starting at 0.5 or 2 μg/ml, respectively, in PBS supplemented with 1% (w/v) bovine serum albumin (BSA) and 0.05% (v/v) of Tween 20 were added. Following 1 h incubation at 37° C., plates were washed with PBS supplemented with 0.05% (v/v) of Tween 20 prior to addition of HRP-conjugated anti-human IgG (Jackson Immunoresearch, 109-036-008). Following further plate washing, plates were developed with 50 μL of Sigmafast OPD Tablet set (Sigma, P9187) and the reaction stopped by addition of 2M sulfuric acid. Plates were read on an ELISA plate reader (OD 490).

T1 sequence (Q9Z138 34-403 V372M): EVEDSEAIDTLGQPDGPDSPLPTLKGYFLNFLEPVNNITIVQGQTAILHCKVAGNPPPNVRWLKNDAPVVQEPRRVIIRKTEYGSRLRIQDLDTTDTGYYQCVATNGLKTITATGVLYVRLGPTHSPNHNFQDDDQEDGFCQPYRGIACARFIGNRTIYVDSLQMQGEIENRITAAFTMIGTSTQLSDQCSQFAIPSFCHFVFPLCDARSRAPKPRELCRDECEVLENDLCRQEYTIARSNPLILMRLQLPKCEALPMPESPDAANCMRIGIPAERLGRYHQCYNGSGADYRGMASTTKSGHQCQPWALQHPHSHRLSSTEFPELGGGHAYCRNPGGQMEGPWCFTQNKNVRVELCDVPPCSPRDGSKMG

| binding result | Binder |
| --- | --- |
| no binding (tested: 2000 ng/mL) | GK-21D3 (mAb399; mAb417) (antibody, human IgG1, also called GK-21D3 (mAb417); MK-21D3; not shown: TwinStrep tag) heavy: not shown light: DIQLTQSPSSLSASIGDRVTITCRASQGISNYLAWYQQKPGKVPKLLIYAASTLQSGVPSRFSGSGSGTDFTLTISSLQPEDVSTYYCQKYNSAPWTFGQGTKVDIKRTVAAPSVFIFPPSDEQLKSGTASVVCLLNNFYPREAKVQWKVDNALQSGNSQESVTEQDSKDSTYSLSSTLTLSKADYEKHKVYACEVTHQGLSSPVTKSFNRGECGGGGGSLPETG |
| no binding (tested: 2000 ng/mL) | GK-22G12 (mAb418) (antibody, human IgG1, Human IgG1/kappa; The light chain tag is printed G5LPETG, perhaps a misprint of G5SLPETG; also called MK-22G12; not shown: TwinStrep tag) heavy: not shown light: DIVMTQSPSSLSASVGDRVTITCRASQGISNYLAWYQQKPGKVPKLLIYAASTLQSGVPSRFSGSGSGTDFTLTISSLQPEDVSTYYCQKHNRAPWTFGQGTKLEIKRTVAAPSVFIFPPSDEQLKSGTASVVCLLNNFYPREAKVQWKVDNALQSGNSQESVTEQDSKDSTYSLSSTLTLSKADYEKHKVYACEVTHQGLSSPVTKSFNRGECGGGGGLPETG |

These binders were tested against T1, mouse ROR2-TwinStrep (assay: ELISA, panel 'Coating: Mouse ROR2' (mouse ROR2-TwinStrep 2 µg/mL), 3-fold dilution series of antibody, HRP anti-human IgG, OD 490 nm).
Method: as §1

| binding result | Binder |
| --- | --- |
| no binding | GK-6B10 (antibody, human IgG1, Human IgG1/kappa; the molecule is assigned by the clone name; not shown: Strep tag) heavy: not shown light: DIVMTQSPSTLSASVGDRVTITCRASQSIDNWLAWYQQKPGKAPKVLIYKASSLESGVPSRFSGSGSGTEFTLTISSLQPDDFATYYCQQYNSYSYTFGQGTKLEIKRTVAAPSVFIFPPSDEQLKSGTASVVCLLNNFYPREAKVQWKVDNALQSGNSQESVTEQDSKDSTYSLSSTLTLSKADYEKHKVYACEVTHQGLSSPVTKSFNRGECGGGGGSLPETG |
| no binding | MK-7C3 (antibody, human IgG1, Human IgG1/kappa; the molecule is assigned by the clone name; not shown: Strep tag) heavy: not shown light: AIRMTQSPSTLSASVGDRVTITCRASQTISNWLAWFQQKPGKAPKVLIYKASSLESGVPSRFSGSGSGTEFTLTISSLQPDDFASYYCQQYNSYSYTFGQGTRLEIKRTVAAPSVFIFPPSDEQLKSGTASVVCLLNNFYPREAKVQWKVDNALQSGNSQESVTEQDSKDSTYSLSSTLTLSKADYEKHKVYACEVTHQGLSSPVTKSFNRGECGGGGGSLPETG |
| no binding | GK-5G12 (antibody, human IgG1, Human IgG1/kappa; the molecule is assigned by the clone name; not shown: Strep tag) heavy: not shown light: EIVLTQSPSSLSASVGDRVTITCRASQGISNYLAWYQQKPGKVPKLLIYAASTLQSGVPSRFSGSGSGTDFTLTISSLQPEDVATYYCQKYNSAPYTFGQGTKLEIKRTVAAPSVFIFPPSDEQLKSGTASVVCLLNNFYPREAKVQWKVDNALQSGNSQESVTEQDSKDSTYSLSSTLTLSKADYEKHKVYACEVTHQGLSSPVTKSFNRGECGGGGGSLPETG |
| binds | GK-5A1 (mAb271) (antibody, human IgG1, Human IgG1/kappa; not shown: Strep tag) heavy: not shown light: EIVLTQSPSTLSASVGDRVTITCRASQSISSWLAWYQQKPGKAPKLLIYKASSLESGVPSRFSGSGSGTEFTLTISSLQPDDFATYYCQQYNSYWTFGQGTKVDIKRTVAAPSVFIFPPSDEQLKSGTASVVCLLNNFYPREAKVQWKVDNALQSGNSQESVTEQDSKDSTYSLSSTLTLSKADYEKHKVYACEVTHQGLSSPVTKSFNRGECGGGGGSLPETG |
| no binding | MK-3B12 (mAb272) (antibody, human IgG1, Human IgG1/kappa; not shown: Strep tag) heavy: not shown light: DIVMTQSPSTLSASVGDRVTITCRASQSISSWLAWYQQKPGKAPKLLIYKASSLESGVPSRFSGSGSGTEFTLTISSLQPDDFATYYCQQYNNYWTFGQGTKVEIKRTVAAPSVFIFPPSDEQLKSGTASVVCLLNNFYPREAKVQWKVDNALQSGNSQESVTEQDSKDSTYSLSSTLTLSKADYEKHKVYACEVTHQGLSSPVTKSFNRGECGGGGGSLPETG |
| no binding | GK-1E5 (mAb270) (antibody, human IgG1, Human IgG1/kappa; not shown: Strep tag) heavy: not shown light: DIQLTQSPSTLSASVGDRVTITCRASQSISSWLAWYQQKPGKAPKLLIYKASSLESGVPSRFSGSGSGTEFTLTISSLQPDDFATYYCQQYNNYWTFGQGTKVEIKRTVAAPSVFIFPPSDEQLKSGTASVVCLLNNFYPREAKVQWKVDNALQSGNSQESVTEQDSKDSTYSLSSTLTLSKADYEKHKVYACEVTHQGLSSPVTKSFNRGECGGGGGSLPETG |
| no binding | GK-2G8 (antibody, human IgG1, Human IgG1/kappa; the molecule is assigned by the clone name; not shown: Strep tag) heavy: not shown light: EIVMTQSPSTLSASVGDRVTITCRASQSISSWLAWYQQKPGKAPKLLIYKASSLESGVPSRFSGSGSGTEFTLTISSLQPDDFATYYCQQYNNYWTFGQGTKVDIKRTVAAPSVFIFPPSDEQLKSGTASVVCLLNNFYPREAKVQWKVDNALQSGNSQESVTEQDSKDSTYSLSSTLTLSKADYEKHKVYACEVTHQGLSSPVTKSFNRGECGGGGGSLPETG |
